Assay results from the DeepSol protein solubility set.

test: soluble on expression in E. coli; label from the status in PepcDB or PDB records

Sequence | soluble on expression in E. coli
WSNNYAVDCPQHCDSSECKSSPRCERTVLDDCGCCRVCAAGRGETCYRTVSGMDGMKCGPGLRCQPSNGEDPFGEEFGICKDCPYGTFGMDCRETCNCQSGICDRGTGKCLKFPFFQYSVTKSSNRFVSLTEHDMASGDGNIVREEVVKENAAGSPVMRKWLNPR | soluble
MFGNHGQLFRLSVFRSADTAQQFLRQCYQQLQRDDAVQRSYANCYPFLYYLEHGQNFYAAAQQAPLSIKPVLLFYGMVQLLKACLLTVDPDYPESTSVLAHGVSARKRKKQGYEFLDDEVKIQKNGLFAHFSEKMFHVKQEAGEKFRMGTLLQRIGELHETFFLLSGRKKPLSLPVVHTASPPMLAIPKVILDHYHMSLSRFVQYLCEEGQGKRLSFAKEEGEFLYFHIESPLSPAGEGPFLFHLDGTLRIPVKKEKTFSLPEIHAHYLLLYNLSMISRYETEWWSELLHSYPSKAYTFILEFLSVSAEKVPLLLHEYLMRKFLG | not soluble
MSESLRNTITKIVVEKIRCKSLMFMPSHVCATFPFNTQNALVVDIGHSECIAVPIIEGVTMLNEFESARSICGRQLERRVREQMEKYGQIAELNGERRAITENDWQDIDACKLIETLSLSLICLDKERAENWTKWEASEEGEKPDIETLCKERLFPNNGKIFVVPPVVFETSTEIFFNENLNPTSFDLSLPKLLHKLVSKCPIDLRKKLFPNILLTGGVSTIPGLMKRLEQEIQVIDEKNNSKIAVIVKFYQFSEIKNTPLFVSWLGASLLGSLRETIERKSLTLEEWKNGKLAADWTDIIVKSR | not soluble
MGSDKIHHHHHHMASIKAINNSAHGNVKVKSNPSFIQSKTKHFAPVVVQEFISASKEFPIVFIKDAETGRFNAVVLLGLKPQENLFFDEKSWQGSYIPEALTLYPFVIHQAEGSDKALLCVDEDSALVNETIGDAFFDEKGVQKEWLTAKGEAVVDYVNKSGVTQNFIQLLLAKELLAPQTLSLNLAGQEEYTLDGLYVINEQKLNDLSDSEFSELRKTNALPAIYAILMSMQCIKKLIDRQSSK | not soluble
LKVSEPAPKGFLIIGANDVARQVGLAIAKYDCRVVVTDSNWDYIRQARMTGLEHYYGNPISSHAEDYLNLIGIGHVLALSPDKHFNIMACMQFLSDFGDKRVFCLNDNPTNNVSEKHLVAQEYHGLPFLGGEVSYKKLASLVGQGAEVKHTKLS | not soluble
MANHAKLVDQEIYRSPVDDFELNYQEYLNDDDDDKQEAPVAVSKAPKGKGSNHGLGCRMKGLFDGFGGTDLKTIMRHLRRRRPKSGQALTNFMLSGNMEKVVDQHVKDFVHHFGRINPENGRIMGALRGNDFFNFGGLHNNLGNTGKVYLDNLMKGKCGKKRKVHKFKPIVVEELDFGAPKPAVPATPKAPVAPVAPVIPAPAVTPQKPKVDEPTYADSVSDFGLDFETEREKCLRNKTLFEDPEFPATAASLYYRTPPRDRIIWKRPGEIIANPQLITQGESRFDVKQGALGDCWFLAALANITLYDALFYRIVPPNQSFTENYAGIFHFQFWHYGKWVDVVVDDRLPTVNNQLYYLHSADNTEFWSALVEKAYAKLHGGYENLDGGTTAEALEDFTGGLTEYFDLRKSEKAAVLAALVKGMEMGSLFGCSIDADANIKEAQLRNGLVCGHAYSITAIHSITYYGEDTTLLRLRNPWGNEKEWNGAWSDGSSEWSKIDEATKKQIDVQFARDGEFWMSFEDFFSNFTQMEVCNLTAEIFDEIAEMTGVNRATETVEEEHQWHEIMEDGEWSSKHSWRLQQQPIYLPQEPSILHFLHSTTILY | not soluble
MDSKKILYISQEIFPYLPETDISVVSRKLPQTIQERGNEVRIFMPRYGIINERRNQLHEVIRLSGINMIINDNDHPLIIKVASIQSARMQVYFIDNDDFFKRKTMYDIKPKQENDNDERAIFFVRGALEAIKKLRWIPDVIHCHGWFTALAALYLKKMYADDPCLQKAKVVYSVYDDAGQGVIPETLFGKLGFDKITPDDLSVMEQSSDYLALNRLAIRYADGVIQGSETIAPELTDYISSLEGKAFLPYQGKEDYEEAFDNFYSDLLTANLEHHHHHH | not soluble
GQDTGEDNLAIKGITTLNDLTMVNVSGPGMKGMVGMASRVFGAMSSAGVSIVLITQSSSEYSISFCIEADDKLKAQQVLADAFELELKDGLLEPVDFIDDVSIVTLVGDGMRTSRGVASRFFSSLAEVNVNIVAIAQGSSERAISAVIPEDKISEAIKACHENLFNSKYF | not soluble
MPLPDFHVSEPFTLGIELEMQVVNPPGYDLSQDSSMLIDAVKNKITAGEVKHDITESMLELATDVCRDINQAAGQFSAMQKVVLQAATDHHLEICGGGTHPFQKWQRQEVCDNERYQRTLENFGYLIQQATVFGQHVHVGCASGDDAIYLLHGLSRFVPHFIALSAASPYMQGTDTRFASSRPNIFSAFPDNGPMPWVSNWQQFEALFRCLSYTTMIDSIKDLHWDIRPSPHFGTVEVRVMDTPLTLSHAVNMAGLIQATAHWLLTERPFKHQEKDYLLYKFNRFQACRYGLEGVITDPHTGDRRPLTEDTLRLLEKIAPSAHKIGASSAIEALHRQVVSGLNEAQLMRDFVADGGSLIGLVKKHCEIWAGD | soluble
MGSDKIHHHHHHMLMESVVSVFDPDLTHLPAVAHRLQFSDPESEVPLHVHRKGQLILALHGAVTCTAGNEIWIVPPNCGVWIPGGVPHSARATANAQLNYLFVEPEAANLPGSSCTLAISPLIREMVERLAEERADYLADSHAARIARVLLDELADMPRERFNLPISSHPKIRAIADALTAEPSDRRTLSDWAKQVAMSERSLARLLIRETGLTFGRWRQQLHLVVALRELASGEAVQNVAAGLGYESVNAFITMFKKALGSTPAQYFAQRHAPTKAGSGEQNRV | not soluble
MGSDKIHHHHHHMNWLLNISTHGSDLEIAGPEWSEAVSLLRRTGMDGFELYPAGAYDCTAIPKEIVGGVHLRFFVMLRQIWQNDREGLLRMFGSEQTVRHYYSGVNREAVISCYRSQLELAARFNVPYVVFHPVHYELEYVFNWQPPWGWRETVDLSTEIINEVVRDTPYDGWILFENLWWPGNFRLDSTDEIDRLLSKVRWPKCGIVLDTAHILNKNQELRTEEEAIAFLLRQVERLGDYRQLIKAVHLSKSLSGEAAKAGFANADPFCGAHDFWQRFSIALRHVRDLDRHEPFSHSMLGELFDLIEPDNVVFELAFSSLDEWIGKIEQQQRALQRFFPECRIKENLY | not soluble
MISKRNTPQRRHAILALLSEQGEVSVDALAKRFSTSEVTIRKDLAAMESHGLLLRRYGGAVPMPQELIGEAAQPVSPYKQAIGRAAAARIREHARIIIDSGSTTAAMIPELGHKPGLVVMTNSLNVVNALRELEHEPVLLMTGGTWDPHSESFQGQVAEQVLRSYDFDQLFIGADGIDLERGTTTFNELLGLSRVMAEVAREVIVMAEADKVGRRIPNQELPWSSIHTLITDERLESSAREQITARGVTLICTPVEALEHHHHHH | not soluble
MDLSMTTPEEITQYLQDHPEFFEEHPDLLESLRFPHPYEGRVISINERQVAMLREKNKLLQNRLQELIDVGENNDAISEKMHRLTVALLGFGSLPELLHELQYHLCEDFSIPHVVLRLWQIDEFGTEADLPSPEFDPISNNVRILAQGMLRPYCGPEVDDEIRQWFAQDAEYLKSFAVIPLKKQSNFGLLVMASPEAERFYPDMGTLYLERLGDMVSSSIMRLIQQTPGAANRESAS | not soluble
GSSALLDTDEVGSELDDSDDDYLISEGEEDGPDENLMLCLYDKVTRTKARWKCSLKDGVVTINRNDYTFQKAQVEAEWV | soluble
MDATISVVCYKSKTLSNGEHPLMLRISKDGKKKYQSLGISVNPKFWDFQKNKPKPKCPNLEYLQKIILDKKLELQKKMLEIKSDQKEYSAATLIEANEKLQVAKNVDCFYKEIIAQCEINNKCGNRLVYLNSYNSLKRFTNGKLEIPFNTINVAWLEKYEKWLRSNGNKETTISLMFRTLRSTYNKAIKERCAHLSDYPFQEYKISKFDTSTQKRAIAKTDMLKFTETSQPIGQKKYVELSKDIFIFSYLCGGINFTDIANLTQENIVNGRLHYIRQKTGKLIKIGIPQEAMQIIKKYTDESNG | not soluble
MGSDKIHHHHHHGNDDFPAEEPKVPLEITSAFVTGDVQTRAVTPELLTSGSIGVFLEGRSGTGYDKKDNIQYDYNVGWKPKTETIYLGGEDADVCAYKKTTKLDLSAKEAVPLVSQIYDAEIDLVYATNQTVNGTSAGKSVEFTMGHAYSQIEFVFSREDYPNTCKVTEITVENANIIKTATLNLATGGYTPVTVEKVSYWTNVAKHEDGIAVPESGTVKSNVLMIPCTLANAGGTGVTLELKVDGKLMTVPIAHDKLGALTAGVIHQISLKLKGTALEISVKDTPWDNQPVDGEYNPEP | not soluble
MTLTRGSFTYSSGEEYTGEWKEGRRHGKGELKFADGTCYKGHFENGLFHGSGVLVFPDGSRYEGEFAQGKFQGVGIFSRFDGMKFEGEFKSGRVEGHGLLTFPDGSHGAPRNEGMFENNKLLKREKCQAVVQRAKNSASTARGLSV | soluble
AQGRQPRTETLHAERRAAGAWLAKRMGLEDSAPVYFLQRRRWVDERPVLIELIALDAGWCPGLLDHDLDTSLMSLLRERFGLQPTRCQLAMHPTALNAAQAEPLQLAPGSPALYLERLSYAEGQRVVEFDQEFWRPDALEIVLDAAYPGA | soluble
KKLNDFQEDAVNTILYSNKRKFLIHGVTGSGKTEIYMHLVKKMIEDNKQSIILVPEISLTPQMIERFKGRFGLNVAVFHSKLSDGERYDEWIRVKNGEVKVAVGARSALFLPFDKLGLIVIDEEHEGSYKSESDPKYNAIEVAEMKSAIEDCILVLGSATP | not soluble
MVNFFRLNLSSNQAAAVTVSETAELPEALEQLGLSNSRPVLVIVGGASQTSEADFLRIQSLFVEVLAPIAQSLGAYVVDGGTDAGVMRLMGDARSQINGQFPLIGVAPTAKVILPNQTTILADDATPLEPHHSHFVLIPGSKWGDESPWIVKVATLLANGLPSITVLINGGEISFIDALNSVIAGRLVIVIAGSGRTADKIASALRGYATDERATELAASDHIQTIDLEAAPEELIDTMTNLLLNLEHHHHHH | not soluble
MQNVKHSYLACSSSSCCQFFSLFLSLCHAEHQIQTLSPSFAYTLLIFALLVSDKSEIALLSRHTHTYIFLPISSVHPSLELLPFVVFMHMRKLLNDVIRPLKKGDGRSAWNVLIVDTLAMRMLSSCCKMHNIMEEGITIVEDLNKRREPLPTLEAIYLIAPTAESIDKLIQDYCARNLYKCAHVFFTEACSDQLFSTLSKSAAARFIKTLKEINIAFTPYESQVFNLDSPDTFFLYYNAQKQGGLTSNLERIAEQIATVCATLGEYPSLRYRADFERNVELGHLVEQKLDAYKADDPSMGEGADKARSQLIIIDRGYDAITPLLHELTLQAMCYDLLGIENDVYKYETGGSDENLEKEVLLDENDDLWVEMRHKHIAVVSQEVTKNLKKFSESKGNKGTMDSKSIKDLSMLIKRMPQHKKELNKFSTHISLAEECMKQYQQGVDKLCKVEQDLSTGIDAEGERVRDAMKLMVPLLIDPAVRCEDRLRLILLYILSKNGITDENLNKLLQHANISMADKETITNAAYLGLNIVTDTGRKKTWTPTKKERPHEQVYQSSRWVPVIKDIIEDAIDERLDTKHFPFLAGRQVNQGYRAPASARYGQWHKERGQQSNYRSGPRLIIYIIGGVTFSEMRACYEVTAARKPWEVVIGSDRIITPDKFLTNLRDLNKPRDI | soluble
MPKWGNINERRNQLHEVIRLSGMNLIIDDTDHPLIIKVASIQSARMQVYFIDNDDYFQNRLQTADENGVEYDDNDSRAIFYARGVLETVKKLRWCPDVIHCHGWMTALAPLYIKKAYKDEPSFRDAKVVFSVYEDDFKGTFNNDFASKLMLKGINKKDVATLKDPVDYATLCKLAVDYSDGIVQNSEHVNEDVMNYARQSGKLVLDYQAPDALADACNSFYDQVWEAEQK | not soluble
